The term Kd denotes the concentration at which binding is half-saturated. Low values mean higher affinity, high ones lower affinity.

We go through one molecule from article PMC9144876 (Protein Science : A Publication of the Protein Society, 2022).

In the test the target is extracellular domain of SARS‐CoV‐2 spike protein (ECD) (SARS‐CoV‐2, UniProt P0DTC2 14-1213). The test can be described thus: ELISA. A general note: ELISA stands for enzyme-linked immunosorbent assay.

B1: h‐deface2 (designed binder)
chain: EFHGPSWCLTPADRGLCRANENRFYYNSVIGKCRPFKYSGCGGNENNFTSKDKCLHECKKG
Turning to B1, the dissociation constant Kd was found to be 54.4 nM.
